# Test results from US20220056125A1 (CEPHALON, published 2022).
# Positions count from the first letter of the chain named.
# B1: P24E296 (antibody, human IgG4 S228P, kappa, V domains shown)
# VH: QVQLVQSGAEVKKPGSSVKVSCKASGFSLNSYAISWVRQAPGQGLEWMGVIWGNGNTYYAQKFQGRVTITADESTSTAYMELSSLRSEDTAVYYCARWRGYKDYPFDYWGQGTLVTVSS
# VL: EIVLTQSPATLSLSPGERATLSCKASQNIYKYLDWYQQKPGQAPRLLIYNANSLATGIPARFSGSGSGRDFTLTISSLEPEDFAVYYCLQHNSGWTFGGGTKVEIKR
# B2: P24E889 (antibody, human IgG4 S228P, kappa, V domains shown)
# VH: B1 VH with N30S
# VL: B1 VL with K24R, Y32W, N52Y, L89Q
# B3: P24E301 (antibody, human IgG4 S228P, kappa, V domains shown)
# VH: B1 VH with N30S, R99K
# VL: B1 VL with Y32W, A51T
# B4: P24E743 (antibody, human IgG4 S228P, kappa, V domains shown)
# VH: B1 VH with N30S
# VL: B1 VL with I29V, Y32W, N52Y, L89Q, N92G
# B5: P24E794 (antibody, human IgG4 S228P, kappa, V domains shown)
# VH: B1 VH with N30S
# VL: B1 VL with K24R, I29V, Y32W, N52Y, L54R, L89Q
# B6: P24E298 (antibody, human IgG4 S228P, kappa, V domains shown)
# VH: B1 VH with N30S
# VL: B1 VL with Y32W, A51T
# B7: P24E883 (antibody, human IgG4 S228P, kappa, V domains shown)
# VH: B1 VH with N30S
# VL: B1 VL with I29V, Y32W, N52Y, L89Q
# B8: P24E297 (antibody, human IgG4 S228P, kappa, V domains shown)
# VH: B1 VH
# VL: B1 VL with A51T, L54R
# B9: P24E300 (antibody, human IgG4 S228P, kappa, V domains shown)
# VH: B1 VH with N30S, Y101W
# VL: B1 VL with Y32W, A51T
# B10: P24E914 (antibody, human IgG4 S228P, kappa, V domains shown)
# VH: B1 VH with N30S, R99K
# VL: B1 VL with K24R, Y32W, N52Y, L89Q
# B11: Ab192 (antibody, human IgG4, V domains shown)
# VH: QVQLQQPGTELVKPGASVKLSCKASGYTFTSYWMHWIKQRPGQGLEWIGNINPSSGGTNYNEKFKTKATLTVDKSSSTAYMQLSSLTSEDSAVYYCAGEAYSNYVAWFAYWGQGTLVTVSS
# VL: ENVLTQSPAIMSASLGEKVTMSCRASSSVNYMYWYQQKSDASPKLWIYYTSNLAPGVPARFSGSGSGTSYSLTISSMEGEDAATYYCQQFTTSPYTFGGGTKLEIK
# notes: also called Anti-PAR-2 antibody # 192
# B12: Ab209 (antibody, human IgG4, V domains shown)
# VH: B11 VH with S55T, G57S, Y60F, E62V, A79T, S84N
# VL: B11 VL with Q36R, A59T
# notes: also called Anti-PAR-2 antibody # 209
# B13: Ab225 (antibody, human IgG4, V domains shown)
# VH: QVQLKESGPGLVQPSQTLSLTCTVSGFSLTSYHVSWVRQSPGKGLEWMGIIWTGGSTAYNSLLKSRLSISRDTSKSQVFLKMNSLQTEDTATYYCARRGAYPFYFDYWGQGVMVTVSS
# VL: EIVLTQSPTTMAASPGEKVTITCRASSSVRSMYWYQQKSGASPKPWIYETSKLTSGVPDRFSGSGSGTSYSFTISSMGTEDAGTYYCHQWTTTPYTFGAGTKLELK
# notes: also called Anti-PAR-2 antibody # 225
# B14: Ab140 (antibody, human IgG4, V domains shown)
# VH: EVQLVESGGGLVQPKGSLKLSCAASGFTFNSYAMHWVRQAPGKGLEWVACIRSKSSYYATYYADSVKDRFTISRHDSQSMLYLQMNNLKTEDTAMYYCVREDYYGSSYDYWGQGTTLTVSS
# VL: QIVLTQSPAIMSASLGERVTMTCTASSSVSSSYLHWYQQKPGSSPKLWIYATSNLASGVPARFSGSGSGTSYSLTISSMEAEDAATYYCHQYHRSPLTFGAGTKLELK
# notes: also called Anti-PAR-2 antibody # 140
# B15: Ab189 (antibody, human IgG4, V domains shown)
# VH: B14 VH with S31T, C50R, S55T, S56T, Y57N, H75D, M85I, N86S, Y108L
# VL: B14 VL with S30I, Y50F, A51S, S78T
# notes: also called Anti-PAR-2 antibody # 189
# B16: Ab234 (antibody, human IgG4, V domains shown)
# VH: EVQLVETGGGLVQPGRSLKLSCVASGFTFNNYWLYWIRQAPGKGLEWVSSINNDGGGTYYPDSVKGRFTVSRDNAENTVYLQMNSLRSEDTATYYCARDRAFIRGRFAYWGQGTLVTVSS
# VL: EIVLTQSPTTMAASPGEKVTLTCRASSSVIYMHWYQQRSGASPKLWIYETSKLASGVPNRFGGSGSGTSYSLTINSMETEDAATYYCQQGSYYPWTFGGGTKLELK
# notes: also called Anti-PAR-2 antibody # 234
# B17: Ab201 (antibody, human IgG4, V domains shown)
# VH: QVQLQQSGPELVKPGASVKISCKASGFSFTSFYIHWVNQRPGQGLEWIGWIYPGSGNTLYNEKFKGKATLTADTSSSTAYIHLSSLTSEDSAVYYCTRGPLFYGSSHWYFDVWGMGTTVTVSS
# VL: EVQITQSPSYLAASPGETITINCRASKSISKYLAWYQEKPGKTNKLLIYSGSTLQSGIPSRFSGSGSGTDFTLTISSLEPEDFAMYYCQQHNKYPLTFGAGTRLELK
# B18: Ab261 (antibody, human IgG4, V domains shown)
# VH: EVQLVESGGGLVQPGRSLKLSCVASGFTFNNYWMTWIRQAPGKGLEWVASITNTGGNTYYPDSVKGRFTISRDNAKSTLYLQMNSLRSEDTATYYCTRDRIIRGADWFAYWGQGTLVTVSS
# VL: DIQMTQSPHSLSASLGETVSIECLASEGISNYLAWFQQKPGKSPQLLIYYASSLQDGVPSRFSGSGSGTQYSLKISNMQPEDEGVYYCQQGYKYPWTFGGGTKLELK
# notes: also called Anti-PAR-2 antibody # 261
# B19: Ab435 (antibody, human IgG4, V domains shown)
# VH: B18 VH with A24G, K43W, N57R, I101V, I102Y, R103Y, A105S, D106N, A109V
# VL: B18 VL with F36Y, V85I, G91H
# B20: Ab228 (antibody, human IgG4, V domains shown)
# VH: B18 VH with A24V, T54S, A105S, D106T
# VL: B18 VL with F36Y, Q89H
# B21: Ab227 (antibody, human IgG4, V domains shown)
# VH: B18 VH with T54S, N57R, I70V, N74S, A105S, D106T, A109T
# VL: B18 VL with K103E
# notes: also called Anti-PAR-2 antibody # 227
# B22: Ab380 (antibody, human IgG4, V domains shown)
# VH: B18 VH with S25T, T54S, N74D, D99V, I101V, I102Y, R103Y, A105S, D106N, A109V
# VL: B18 VL
# notes: also called Anti-PAR-2 antibody # 380
# How the values were obtained:
# human PAR-2 [1] = target: T1, human PAR-2 (human, UniProt P55085 26-397); assay: cell-based or functional assay
# T1 sequence: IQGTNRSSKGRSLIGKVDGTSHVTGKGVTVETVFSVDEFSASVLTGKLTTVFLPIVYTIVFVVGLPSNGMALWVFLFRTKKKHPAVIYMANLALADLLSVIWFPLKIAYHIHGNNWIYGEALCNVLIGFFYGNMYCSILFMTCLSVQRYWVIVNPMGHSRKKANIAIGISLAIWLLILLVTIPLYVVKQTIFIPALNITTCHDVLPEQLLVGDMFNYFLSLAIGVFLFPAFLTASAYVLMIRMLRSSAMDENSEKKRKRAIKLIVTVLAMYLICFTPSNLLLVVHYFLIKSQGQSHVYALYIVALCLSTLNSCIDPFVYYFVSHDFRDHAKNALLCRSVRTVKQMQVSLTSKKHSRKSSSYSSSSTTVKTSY
# human PAR-2 [2] = target: T1, human PAR-2; assay: cell-based or functional assay; remark: listed apart in the source
# human PAR-1 = target: T2, human PAR-1 (human, UniProt P25116 22-425); assay: flow cytometry, transfected Expi293F cells
# T2 construct: also called huPAR-1
# T2 sequence: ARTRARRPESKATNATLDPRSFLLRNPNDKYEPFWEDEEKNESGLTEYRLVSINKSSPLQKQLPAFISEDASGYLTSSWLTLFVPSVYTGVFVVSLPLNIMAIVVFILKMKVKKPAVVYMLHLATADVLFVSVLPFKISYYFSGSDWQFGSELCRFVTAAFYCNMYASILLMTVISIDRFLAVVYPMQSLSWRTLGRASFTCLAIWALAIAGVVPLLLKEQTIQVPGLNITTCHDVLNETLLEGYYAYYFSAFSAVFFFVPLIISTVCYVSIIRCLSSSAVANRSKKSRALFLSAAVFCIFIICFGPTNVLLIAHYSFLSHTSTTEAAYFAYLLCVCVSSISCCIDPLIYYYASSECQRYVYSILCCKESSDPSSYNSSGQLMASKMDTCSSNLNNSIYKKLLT
# Procedure: Paired heavy and light chains encoded by these sequence pairs were expressed as a full length human IgG4 isotype antibodies and assessed for PAR-2 binding and selectivity by flow cytometry. […] Cells were used for flow cytometric analysis 36-48 hours post-transfection. Use of Nt-PAR-2 as a target allowed antibodies which bound the N-terminal residues of PAR-2 (which comprise the protease-cleavage sites on PAR-2) to be distinguished from antibodies which bound other extracellular sites on PAR-2, such as the PAR-2-activating ligand-binding site(s). Expi293F cells, transiently expressing one of each of the different target proteins were labelled with different intensities of a single fluorphor Encoder dye (Intellicyt) for 10 mins at either 1 in 250 dilution for high intensity and/or 1 in 1500 dilution for moderate intensity, enabling simultaneous analysis of multiple cell populations. After washing the cells were then mixed in an equal ratio with the unlabeled cell type and analyzed for antibody binding.
# The cells were plated in 96 well plates at 2×10⁵ cells/well. Following a wash step using Phosphate buffered saline (PBS), the primary antibody (anti-PAR-2 antibody) was added at a concentration of 10 μg/mL in 50 μL of FACS buffer (0.5% w/v BSA in PBS) to each well and incubated for 10-15 mins. Following a wash step, secondary antibody (anti-human Fc-FITC) was added to the wells at 1:200 dilution in 50 μL for 10-15 mins. Following a washing step, the cells were re-suspended in fluorescence-activated cell sorting (FACS) buffer. The flow cytometry analysis was performed on an Intellicyt iQue screener. Gates were drawn around the different intensities of encoder dye-positive cells and these populations were analyzed separately from each other and the unlabeled cells for binding by the primary antibody.
Binder,"PAR-2 β-arrestin cell based assay IC50, 2 µM SLIGKV (human PAR-2 [1]) [nM]","IC50, PAR-2 β-arrestin cell assay (human PAR-2 [2]) [nM]",binding result (human PAR-1)
B1,2.4,,
B2,0.97,,
B3,1.48,,
B4,1.51,,
B5,0.89,,
B6,1.47,,
B7,1.21,,
B8,3,,
B9,1.3,,
B10,0.94,,
B11,,100,no binding (tested: 10 µg/mL)
B12,,65.5,no binding (tested: 10 µg/mL)
B13,,3.4,no binding (tested: 10 µg/mL)
B14,,20.1,no binding (tested: 10 µg/mL)
B15,,123,no binding (tested: 10 µg/mL)
B16,,4.8,no binding (tested: 10 µg/mL)
B17,,10.7,no binding (tested: 10 µg/mL)
B18,,19.9,no binding (tested: 10 µg/mL)
B19,,53.8,no binding (tested: 10 µg/mL)
B20,,33.3,no binding (tested: 10 µg/mL)
B21,,10.2,no binding (tested: 10 µg/mL)
B22,,57.1,no binding (tested: 10 µg/mL)
